{"source": "paper PMC4800440", "about": "(Nature Communications, 2016)", "binders": {"B1": {"name": "TIF2 (623–772), His-tb-TIF2, expressed alone for the complex with ERβ-EF (domain or fragment, human, UniProt Q15596 623-772, looked up)", "chain": "SERADGQSRLHDSKGQTKLLQLLTTKSDQMEPSPLASSLSDTNKDSTGSLPGSGSTHGTSLKEKHKILHRLLQDSSSPVDLAKLTAEATGKDLSQESSSTAPGSEVTIKQEPVSPKKKENALLRYLLDKDDTKDIGLPEITPKLERLDSK", "notes": "also called transcriptional intermediary factor 2"}, "B2": {"name": "human oestrogen receptor beta ligand-binding domain ERβ-EF (255–530) (domain or fragment, UniProt Q92731 255-530, looked up)", "chain": "VRELLLDALSPEQLVLTLLEAEPPHVLISRPSAPFTEASMMMSLTKLADKELVHMISWAKKIPGFVELSLFDQVRLLESCWMEVLMMGLMWRSIDHPGKLIFAPDLVLDRDEGKCVEGILEIFDMLLATTSRFRELKLQHKEYLCVKAMILLNSSMYPLVTATQDADSSRKLAHLLNAVTDALVWVIAKSGISSQQQSMRLANLLMLLSHVRHASNKGMEHLLNMKCKNVVPVYDLLLEMLNAHVLRGCKSSITGSECSPAEDSKSKEGSQNPQSQ", "notes": "Estradiol (E2) present throughout; Tag removed with TEV protease; the thioredoxin tag was separated from the complex by gel filtration; also called ERβ LBD; Trx-His-tev-ERβ-EF (255–530); source: E. coli BL21(DE3), with 10 μM estradiol; not shown: thioredoxin, N-terminal, cleaved; His, N-terminal, cleaved"}}, "key": {"[1]": {"biological_target": "T1, TIF2 (623–772), (His)6-thrombin-TIF2, co-expressed with GRtm-E (human, UniProt Q15596 623-772)", "T1 construct": "Same limits as m2; here the tags were removed by thrombin cleavage; not shown: His6, N-terminal, cleaved", "T1 sequence (looked up)": "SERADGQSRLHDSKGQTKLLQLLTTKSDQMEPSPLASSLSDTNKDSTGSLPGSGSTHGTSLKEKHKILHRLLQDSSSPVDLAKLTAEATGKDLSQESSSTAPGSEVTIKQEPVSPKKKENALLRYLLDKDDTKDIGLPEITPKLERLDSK", "conditions": "both partners purified"}, "[2]": {"biological_target": "B2", "experiment": "SEC", "conditions": "partners not purified"}, "[3]": {"biological_target": "B1", "experiment": "native MS", "conditions": "both partners purified"}}, "note": "Several values for one entry are separate records, joined by “and”; a condition that tells them apart may be missing. Equal entries are not always repeated.", "data": [{"binder": "GR_LBD triple mutant C638A, W557T and W712S (residue 524–777) (domain or fragment, human, UniProt P04150 524-777, looked up, Dexamethasone present throughout; Tags removed with thrombin; The bioinformatics methods print the cysteine as Cys 636, the production methods as C638A; also called GRtm-E; GRtm LBD; not shown: NusA, N-terminal, cleaved; His6, N-terminal, cleaved) TLPQLTPTLVSLLEVIEPEVLYAGYDSSVPDSTTRIMTTLNMLGGRQVIAAVKWAKAIPGFRNLHLDDQMTLLQYSWMFLMAFALGWRSYRQSSANLLCFAPDLIINEQRMTLPAMYDQCKHMLYVSSELHRLQVSYEEYLCMKTLLLLSSVPKDGLKSQELFDEIRMTYIKELGKAIVKREGNSSQNSQRFYQLTKLLDSMHEVVENLLNYCFQTFLDKTMSIEFPEMLAEIITNQIPKYSNGNIKKLLFHQK", "values": [{"measurement": "stoichiometry N", "setting": "[1]", "result": "2 GR per TIF2 and 1 GRtm-E per TIF2"}]}, {"binder": "B1", "values": [{"measurement": "binding result", "setting": "[2]", "result": "binds"}]}, {"binder": "B2", "values": [{"measurement": "stoichiometry N", "setting": "[3]", "result": 2, "unit": "ERβ-EF per TIF2"}]}]}
